Test results from patent publication US20120276092A1.

Molecular target: polyhistidine-tagged human FcRn (human) (UniProt P55899)
Assay: AlphaScreen competition, pH 6.0, against biotinylated human IgG1 mAb CNTO 6234 on polyHis human FcRn

fold change of KD against CNTO 530: 2 fold
Substance: CNTO 5303 (CNTO 530 T359N/N361T) (from UniProt P01861 116-325) (Fc fusion)
